IntAct's records for PubMed 29892012

B1: Keratin, type I cuticular Ha8 (Homo sapiens), O76015 (parent)
chain: MTSSYSSSSCPLGCTMAPGARNVSVSPIDIGCQPGAEANIAPMCLLANVAHANRVRVGSTPLGRPSLCLPPTCHTACPLPGTCHIPGNIGICGAYGENTLNGHEKETMQFLNDRLANYLEKVRQLEQENAELEATLLERSKCHESTVCPDYQSYFHTIEELQQKILCSKAENARLIVQIDNAKLAADDFRIKLESERSLRQLVEADKCGTQKLLDDATLAKADLEAQQESLKEEQLSLKSNHEQEVKILRSQLGEKLRIELDIEPTIDLNRVLGEMRAQYEAMLETNRQDVEQWFQAQSEGISLQDMSCSEELQCCQSEILELRCTVNALEVERQAQHTLKDCLQNSLCEAEDRFGTELAQMQSLISNVEEQLSEIRADLERQNQEYQVLLDVKTRLENEIATYRNLLESEDCKLPCNPCSTSPSCVTAPCAPRPSCGPCTTCGPTCGASTTGSRF
partner: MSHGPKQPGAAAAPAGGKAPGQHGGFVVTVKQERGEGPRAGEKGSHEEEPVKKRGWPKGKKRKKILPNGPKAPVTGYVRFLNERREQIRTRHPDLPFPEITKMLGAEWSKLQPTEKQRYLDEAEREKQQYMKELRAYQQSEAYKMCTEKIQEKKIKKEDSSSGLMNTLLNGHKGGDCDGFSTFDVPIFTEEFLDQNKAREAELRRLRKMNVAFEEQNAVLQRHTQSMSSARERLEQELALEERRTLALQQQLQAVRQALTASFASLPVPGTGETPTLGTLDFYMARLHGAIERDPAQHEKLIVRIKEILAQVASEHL
B2: Kinetochore protein NDC80 homolog (Homo sapiens), O14777 (parent)
chain: MKRSSVSSGGAGRLSMQELRSQDVNKQGLYTPQTKEKPTFGKLSINKPTSERKVSLFGKRTSGHGSRNSQLGIFSSSEKIKDPRPLNDKAFIQQCIRQLCEFLTENGYAHNVSMKSLQAPSVKDFLKIFTFLYGFLCPSYELPDTKFEEEVPRIFKDLGYPFALSKSSMYTVGAPHTWPHIVAALVWLIDCIKIHTAMKESSPLFDDGQPWGEETEDGIMHNKLFLDYTIKCYESFMSGADSFDEMNAELQSKLKDLFNVDAFKLESLEAKNRALNEQIARLEQEREKEPNRLESLRKLKASLQGDVQKYQAYMSNLESHSAILDQKLNGLNEEIARVELECETIKQENTRLQNIIDNQKYSVADIERINHERNELQQTINKLTKDLEAEQQKLWNEELKYARGKEAIETQLAEYHKLARKLKLIPKGAENSKGYDFEIKFNPEAGANCLVKYRAQVYVPLKELLNETEEEINKALNKKMGLEDTLEQLNAMITESKRSVRTLKEEVQKLDDLYQQKIKEAEEEDEKCASELESLEKHKHLLESTVNQGLSEAMNELDAVQREYQLVVQTTTEERRKVGNNLQRLLEMVATHVGSVEKHLEEQIAKVDREYEECMSEDLSENIKEIRDKYEKKATLIKSSEE
partner: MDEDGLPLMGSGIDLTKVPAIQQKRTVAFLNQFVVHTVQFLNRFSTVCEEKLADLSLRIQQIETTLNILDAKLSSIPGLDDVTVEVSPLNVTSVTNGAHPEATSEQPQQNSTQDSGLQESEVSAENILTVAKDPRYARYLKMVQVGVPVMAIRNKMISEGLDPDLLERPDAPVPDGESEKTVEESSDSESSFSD
B3: Vacuolar protein-sorting-associated protein 25 (Homo sapiens), Q9BRG1 (parent)
chain: MAMSFEWPWQYRFPPFFTLQPNVDTRQKQLAAWCSLVLSFCRLHKQSSMTVMEAQESPLFNNVKLQRKLPVESIQIVLEELRKKGNLEWLDKSKSSFLIMWRRPEEWGKLIYQWVSRSGQNNSVFTLYELTNGEDTEDEEFHGLDEATLLRALQALQQEHKAEIITVSDGRGVKFF
partner: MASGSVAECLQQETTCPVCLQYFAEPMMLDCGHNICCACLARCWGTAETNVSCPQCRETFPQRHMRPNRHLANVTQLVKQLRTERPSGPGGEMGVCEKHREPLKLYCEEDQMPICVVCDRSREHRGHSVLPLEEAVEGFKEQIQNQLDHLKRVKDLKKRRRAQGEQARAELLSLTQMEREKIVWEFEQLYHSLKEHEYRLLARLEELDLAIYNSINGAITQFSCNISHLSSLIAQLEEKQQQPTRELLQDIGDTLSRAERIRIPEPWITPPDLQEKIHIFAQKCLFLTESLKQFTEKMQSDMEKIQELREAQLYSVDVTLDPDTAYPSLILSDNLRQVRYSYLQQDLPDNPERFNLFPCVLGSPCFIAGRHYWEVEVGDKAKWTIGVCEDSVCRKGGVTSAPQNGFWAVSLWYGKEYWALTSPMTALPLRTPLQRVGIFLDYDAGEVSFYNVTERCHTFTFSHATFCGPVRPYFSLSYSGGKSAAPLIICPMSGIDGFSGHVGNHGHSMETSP
B4: F-box/LRR-repeat protein 12 (Homo sapiens), Q9NXK8 (parent)
chain: MATLVELPDSVLLEIFSYLPVRDRIRISRVCHRWKRLVDDRWLWRHVDLTLYTMRPKVMWHLLRRYMASRLHSLRMGGYLFSGSQAPQLSPALLRALGQKCPNLKRLCLHVADLSMVPITSLPSTLRTLELHSCEISMAWLHKQQDPTVLPLLECIVLDRVPAFRDEHLQGLTRFRALRSLVLGGTYRVTETGLDAGLQELSYLQRLEVLGCTLSADSTLLAISRHLRDVRKIRLTVRGLSAPGLAVLEGMPALESLCLQGPLVTPEMPSPTEILSSCLTMPKLRVLELQGLGWEGQEAEKILCKGLPHCMVIVRACPKESMDWWM
B5: Kinetochore protein NDC80 homolog (Homo sapiens), O14777 (parent)
chain: B2 chain
partner: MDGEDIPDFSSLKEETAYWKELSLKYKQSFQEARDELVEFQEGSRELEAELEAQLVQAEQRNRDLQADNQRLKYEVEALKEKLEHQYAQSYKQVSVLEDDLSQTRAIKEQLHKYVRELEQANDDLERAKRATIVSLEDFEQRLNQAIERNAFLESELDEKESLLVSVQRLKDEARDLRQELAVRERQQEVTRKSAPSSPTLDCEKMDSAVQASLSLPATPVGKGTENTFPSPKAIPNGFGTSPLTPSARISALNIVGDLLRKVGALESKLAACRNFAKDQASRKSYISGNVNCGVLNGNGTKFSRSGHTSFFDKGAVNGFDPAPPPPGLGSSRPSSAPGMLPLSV
B6: Keratin, type I cuticular Ha8 (Homo sapiens), O76015 (parent)
chain: B1 chain
partner: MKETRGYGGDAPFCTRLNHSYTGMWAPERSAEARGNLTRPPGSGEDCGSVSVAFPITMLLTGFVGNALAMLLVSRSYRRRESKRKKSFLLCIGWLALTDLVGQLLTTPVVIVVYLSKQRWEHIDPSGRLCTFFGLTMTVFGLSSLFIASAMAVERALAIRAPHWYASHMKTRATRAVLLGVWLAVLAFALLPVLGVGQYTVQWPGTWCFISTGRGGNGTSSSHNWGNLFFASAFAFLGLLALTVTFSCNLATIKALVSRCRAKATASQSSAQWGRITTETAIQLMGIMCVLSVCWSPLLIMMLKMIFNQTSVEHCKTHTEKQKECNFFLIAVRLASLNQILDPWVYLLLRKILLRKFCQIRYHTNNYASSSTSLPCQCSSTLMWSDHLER
B7: Keratin, type I cuticular Ha8 (Homo sapiens), O76015 (parent)
chain: B1 chain
partner: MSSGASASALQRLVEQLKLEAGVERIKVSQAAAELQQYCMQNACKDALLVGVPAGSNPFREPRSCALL

Variants of: B1
Details: with hm20b_human HMG20B

Variant | effect of a mutation on the interaction
D306A | with no effect

Variants of: B2
Details: with wasc3_human WASHC3, Q9Y3C0

Variant | effect of a mutation on the interaction
K288E | with no effect

Variants of: B3
Details: with tri27_human TRIM27, P14373

Variant | effect of a mutation on the interaction
P58Q | disrupting interaction strength

Variants of: B4
Details: with dock8_human DOCK8, Q8NF50
Chain of dock8_human DOCK8, Q8NF50 (Q8NF50 whole entry): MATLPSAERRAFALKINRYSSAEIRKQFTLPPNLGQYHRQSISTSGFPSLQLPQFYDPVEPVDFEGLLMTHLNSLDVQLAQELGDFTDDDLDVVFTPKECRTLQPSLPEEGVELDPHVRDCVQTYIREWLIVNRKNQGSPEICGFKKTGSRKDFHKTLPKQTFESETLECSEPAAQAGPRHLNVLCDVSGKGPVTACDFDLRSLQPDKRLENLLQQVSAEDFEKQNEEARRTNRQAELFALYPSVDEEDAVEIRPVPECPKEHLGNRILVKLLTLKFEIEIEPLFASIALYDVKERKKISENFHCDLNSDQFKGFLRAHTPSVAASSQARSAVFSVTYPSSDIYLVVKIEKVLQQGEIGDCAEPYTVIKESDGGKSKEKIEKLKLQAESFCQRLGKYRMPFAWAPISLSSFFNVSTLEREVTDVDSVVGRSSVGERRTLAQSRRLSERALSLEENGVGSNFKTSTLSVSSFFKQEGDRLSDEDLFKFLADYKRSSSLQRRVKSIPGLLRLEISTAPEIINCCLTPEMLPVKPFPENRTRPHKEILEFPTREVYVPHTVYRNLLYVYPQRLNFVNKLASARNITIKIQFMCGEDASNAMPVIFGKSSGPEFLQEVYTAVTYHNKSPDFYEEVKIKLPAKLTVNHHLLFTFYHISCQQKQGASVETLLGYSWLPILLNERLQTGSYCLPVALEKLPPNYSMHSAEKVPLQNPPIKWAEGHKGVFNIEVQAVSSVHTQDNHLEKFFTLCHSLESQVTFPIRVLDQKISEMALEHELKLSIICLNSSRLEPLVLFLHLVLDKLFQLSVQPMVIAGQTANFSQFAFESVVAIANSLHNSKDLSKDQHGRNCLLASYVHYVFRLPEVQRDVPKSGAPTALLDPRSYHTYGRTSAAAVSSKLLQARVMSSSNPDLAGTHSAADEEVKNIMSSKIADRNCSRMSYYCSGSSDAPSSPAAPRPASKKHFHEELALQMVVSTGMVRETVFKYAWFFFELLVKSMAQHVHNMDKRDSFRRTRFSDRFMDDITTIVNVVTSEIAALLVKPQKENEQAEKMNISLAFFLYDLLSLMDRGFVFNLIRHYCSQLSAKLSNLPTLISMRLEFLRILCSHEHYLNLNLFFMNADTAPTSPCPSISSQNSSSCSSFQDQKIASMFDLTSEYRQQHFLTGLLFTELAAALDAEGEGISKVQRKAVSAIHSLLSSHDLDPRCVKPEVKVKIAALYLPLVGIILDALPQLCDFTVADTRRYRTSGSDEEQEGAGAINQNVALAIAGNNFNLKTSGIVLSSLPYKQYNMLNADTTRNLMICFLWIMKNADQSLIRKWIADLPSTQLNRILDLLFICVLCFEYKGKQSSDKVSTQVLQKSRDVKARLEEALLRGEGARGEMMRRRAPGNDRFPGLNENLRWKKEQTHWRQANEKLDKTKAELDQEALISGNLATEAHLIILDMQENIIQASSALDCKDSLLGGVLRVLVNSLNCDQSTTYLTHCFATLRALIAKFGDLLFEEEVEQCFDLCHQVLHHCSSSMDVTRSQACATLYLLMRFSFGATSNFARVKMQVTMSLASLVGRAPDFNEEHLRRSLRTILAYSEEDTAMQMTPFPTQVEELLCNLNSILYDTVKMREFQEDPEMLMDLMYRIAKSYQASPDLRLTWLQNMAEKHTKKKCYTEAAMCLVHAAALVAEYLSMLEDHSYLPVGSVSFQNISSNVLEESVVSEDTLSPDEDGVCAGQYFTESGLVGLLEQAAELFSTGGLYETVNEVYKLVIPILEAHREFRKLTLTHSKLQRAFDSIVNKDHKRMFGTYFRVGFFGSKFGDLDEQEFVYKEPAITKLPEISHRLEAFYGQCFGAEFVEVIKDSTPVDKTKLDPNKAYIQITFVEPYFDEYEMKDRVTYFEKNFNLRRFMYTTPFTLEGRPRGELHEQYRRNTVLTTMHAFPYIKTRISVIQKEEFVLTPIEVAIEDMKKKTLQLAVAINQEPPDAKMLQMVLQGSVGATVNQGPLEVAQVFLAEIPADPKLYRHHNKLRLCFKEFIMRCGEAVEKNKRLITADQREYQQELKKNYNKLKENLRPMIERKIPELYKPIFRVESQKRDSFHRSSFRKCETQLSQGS

Variant | effect of a mutation on the interaction
I313V | with no effect

Variants of: B5
Details: with ndel1_human NDEL1, Q9GZM8

Variant | effect of a mutation on the interaction
K288E | with no effect

Variants of: B6
Details: with pe2r3_human PTGER3, P43115

Variant | effect of a mutation on the interaction
D306A | with no effect

Variants of: B6
Details: with pe2r3_human PTGER3, P43115
Remark: another data set of the same source

Variant | effect of a mutation on the interaction
N270K | with no effect

Variants of: B7
Details: with gbg10_human GNG10, P50151

Variant | effect of a mutation on the interaction
N270K | with no effect
